Values of other authors, collected in article PMC6933782 (ACS Omega, 2019).

Settings: ref 26 (Jagoda et al., 2015)

Substance: ^18F-labeled RSA: ^18F-labeled rat serum albumin (RSA), literature, ref 26
- retention of uptake in the heart and peripheral vasculature (PET, up to stated time postinjection): up to 2.5 h
- uptake in PET: uptake in the heart and peripheral vasculature
